Patent US20260274985A1 (MYTHIC THERAPEUTICS, published 2026)

T1: TROP2 on TROP2-positive NCI-H1975 cells (human, UniProt P09758 27-323)
T1 sequence: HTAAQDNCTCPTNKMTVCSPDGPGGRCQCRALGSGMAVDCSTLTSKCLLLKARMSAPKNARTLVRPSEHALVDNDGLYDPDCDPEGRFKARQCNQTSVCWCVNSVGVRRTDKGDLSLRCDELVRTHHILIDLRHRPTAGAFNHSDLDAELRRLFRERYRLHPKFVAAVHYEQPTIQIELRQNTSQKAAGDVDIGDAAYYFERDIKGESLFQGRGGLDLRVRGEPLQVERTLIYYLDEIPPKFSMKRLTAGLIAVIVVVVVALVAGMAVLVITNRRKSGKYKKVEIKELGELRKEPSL

T2: Human TROP2 Protein, His Tag (Acro Biosystems) (human, UniProt P09758 27-274)
T2 construct: Bought antigen used at 50 nM in the Octet screen; also called TACSTD2; not shown: His tag
T2 sequence (looked up): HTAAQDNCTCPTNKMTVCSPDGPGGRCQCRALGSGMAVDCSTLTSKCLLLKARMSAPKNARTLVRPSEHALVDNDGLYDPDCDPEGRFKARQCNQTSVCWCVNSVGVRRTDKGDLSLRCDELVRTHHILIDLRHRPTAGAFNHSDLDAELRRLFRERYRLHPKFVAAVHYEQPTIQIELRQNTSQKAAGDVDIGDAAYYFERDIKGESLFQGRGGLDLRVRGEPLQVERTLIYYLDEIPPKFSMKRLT

B1: MYT13402 (antibody, V domains shown)
VH: QVQLQQSGSELKKPGASVKVSCKASGYTFTNYGMNWVKQAPGQGLKWMGWINTYTGEPTYTDHFKGRFAFSLDTSVSTAYLQISSLKADDTAVYFCARGGFGSSYWYFDVWGQGSLVTVSS
VL: DIQLTQSPSSLSASVGDRVSITCKASQDVSIAHAWYQQKPGKAPKLLIYSASYRYTGVPDRFSGSGSGTDFTLTISSLQPEDFAVYYCQQHYHTPLTFGAGTKVEIK
B2: MYT13413 (antibody, V domains shown)
VH: QVQLQQSGSELKKPGASVKVSCKASGYTFTNYGMNWVKQAPGQGLKWMGWINTYTGEPTYTDDFKHRFAFSLDTSVSTAYLQISSLKADDTAVYFCARGGFGSSYWYFDVWGQGSLVTVSS
VL: DIQLTQSPSSLSASVGDRVSITCKASQDVSIAVAWYQQKPGKAPKLLIYSHHYRYTGVPDRFSGSGSGTDFTLTISSLQPEDFAVYYCQQHYITPLTFGAGTKVEIK
B3: MYT13398 (antibody, V domains shown)
VH: QVQLQQSGSELKKPGASVKVSCKASGYTFTNHGMNWVKQAPGQGLKWMGWINTYTGEPTYTDDFKGRFAFSLDTSVSTAYLQISSLKADDTAVYFCARGGFGSSYWYFDVWGQGSLVTVSS
VL: DIQLTQSPSSLSASVGDRVSITCKASQDVSIAHAWYQQKPGKAPKLLIYSASYRYTGVPDRFSGSGSGTDFTLTISSLQPEDFAVYYCQQHYHTPLTFGAGTKVEIK
B4: MYT13404 (antibody, V domains shown)
VH: QVQLQQSGSELKKPGASVKVSCKASGYTFTNYGMNWVKQAPGQGLKWMGWINTYTGEPTYTDDFHGRFAFSLDTSVSTAYLQISSLKADDTAVYFCARGGFGSSYWYFDVWGQGSLVTVSS
VL: DIQLTQSPSSLSASVGDRVSITCKASQDVSIAHAWYQQKPGKAPKLLIYSASYRYTGVPDRFSGSGSGTDFTLTISSLQPEDFAVYYCQQHYHTPLTFGAGTKVEIK
B5: MYT11705 (antibody, V domains shown)
VH: QVQLQESGPGLVKPSETLSLTCTVSHGSISSYGVHWIRQPPGKGLEWIGVIWTSGVTDYNSALMGRVTISVDTSKNQFSLKLSSVTAADTAVYYCARDGDYDRYTMDYWGQGTLVTVSS
VL: DIVMTQSPDSLAVSLGERATINCRASKSVSTSGYSYMHWYQQKPGQPPKLLIYLASNLESGVPDRFSGSGSGTDFTLTISSLQAEDVAVYYCQHSRELPYTFGQGTKLEIK
notes: hu7E6SVG variant, His at HCV position 26 (H1 01); screened as IgG in Expi293 supernatant
B6: MYT13289 (antibody, V domains shown)
VH: QVQLQESGPGLVKPSETLSLTCTVSGGSISSYGVHWIRQPPGKGLEWIGVIWTSGVTDYNSALMGRVTISVDTSKNQFSLKLSSVTAADTAVYYCARDGDYDHYTMDYWGQGTLVTVSS
VL: DIVMTQSPDSLAVSLGERATINCRASKSVSTSGYSYMHWYQQKPGQPPKLLIYLASNLESGVPDRFSGSGSGTDFTLTISSLQAEDVAVYYCHHSRELPYTFGQGTKLEIK
B7: MYT13299 (antibody, V domains shown)
VH: QVQLQESGPGLVKPSETLSLTCTVSGGSISSYGVHWIRQPPGKGLEWIGVIWTSGVTDYNSALMGRVTISVDTSKNQFSLKLSSVTAADTAVYYCARDGDYDHYTMDYWGQGTLVTVSS
VL: DIVMTQSPDSLAVSLGERATINCRASKSVSTSGYSYMHWYQQKPGQPPKLLIYLASNLESGVPDRFSGSGSGTDFTLTISSLQAEDVAVYYCQHSRHLPYTFGQGTKLEIK
B8: MYT13298 (antibody, V domains shown)
VH: QVQLQESGPGLVKPSETLSLTCTVSGGSISSYGVHWIRQPPGKGLEWIGVIWTSGVTDYNSALMGRVTISVDTSKNQFSLKLSSVTAADTAVYYCARDGDYHRYTMDYWGQGTLVTVSS
VL: DIVMTQSPDSLAVSLGERATINCRASKSVSTSGYSYMHWYQQKPGQPPKLLIYLASNLESGVPDRFSGSGSGTDFTLTISSLQAEDVAVYYCQHSRHLPYTFGQGTKLEIK
B9: MYT13288 (antibody, V domains shown)
VH: QVQLQESGPGLVKPSETLSLTCTVSGGSISSYGVHWIRQPPGKGLEWIGVIWTSGVTDYNSALMGRVTISVDTSKNQFSLKLSSVTAADTAVYYCARDGDYHRYTMDYWGQGTLVTVSS
VL: DIVMTQSPDSLAVSLGERATINCRASKSVSTSGYSYMHWYQQKPGQPPKLLIYLASNLESGVPDRFSGSGSGTDFTLTISSLQAEDVAVYYCHHSRELPYTFGQGTKLEIK
B10: MYT13290 (antibody, V domains shown)
VH: QVQLQESGPGLVKPSETLSLTCTVSGGSISSYGVHWIRQPPGKGLEWIGVIWTSGVTDYNSALMGRVTISVDTSKNQFSLKLSSVTAADTAVYYCARDGDYDRYTHDYWGQGTLVTVSS
VL: DIVMTQSPDSLAVSLGERATINCRASKSVSTSGYSYMHWYQQKPGQPPKLLIYLASNLESGVPDRFSGSGSGTDFTLTISSLQAEDVAVYYCHHSRELPYTFGQGTKLEIK
B11: MYT13279 (antibody, V domains shown)
VH: QVQLQESGPGLVKPSETLSLTCTVSGGSISSYGVHWIRQPPGKGLEWIGVIWTSGVTDYNSALMGRVTISVDTSKNQFSLKLSSVTAADTAVYYCARDGDYDHYTMDYWGQGTLVTVSS
VL: DIVMTQSPDSLAVSLGERATINCRASKSVSTSGYSYMHWYQQKPGQPPKLLIYLASNLHSGVPDRFSGSGSGTDFTLTISSLQAEDVAVYYCQHSRELPYTFGQGTKLEIK
B12: MYT13446 (antibody, V domains shown)
VH: QVQLQESGPGLVKPSETLSLTCTVSGGSISSYGVHWIRQPPGKGLEWIGVIWTSGVTDYNSALMGRVTISVDTSKNQFSLKLSSVTAADTAVYYCARDGDYDHYTMDYWGQGTLVTVSS
VL: DIVMTQSPDSLAVSLGERATINCRASKSVSTSGYSYMHWYQQKPGQPPKLLIYLASNLHSGVPDRFSGSGSGTDFTLTISSLQAEDVAVYYCQHSRELPYHFGQGTKLEIK
B13: MYT13300 (antibody, V domains shown)
VH: QVQLQESGPGLVKPSETLSLTCTVSGGSISSYGVHWIRQPPGKGLEWIGVIWTSGVTDYNSALMGRVTISVDTSKNQFSLKLSSVTAADTAVYYCARDGDYDRYTHDYWGQGTLVTVSS
VL: DIVMTQSPDSLAVSLGERATINCRASKSVSTSGYSYMHWYQQKPGQPPKLLIYLASNLESGVPDRFSGSGSGTDFTLTISSLQAEDVAVYYCQHSRHLPYTFGQGTKLEIK
B14: MYT13285 (antibody, V domains shown)
VH: QVQLQESGPGLVKPSETLSLTCTVSGGSISSYGVHWIRQPPGKGLEWIGVIWTSGVTDYNSALMGRVTISVDTSKNQFSLKLSSVTAADTAVYYCARDGDYDRYTHDYWGQGTLVTVSS
VL: DIVMTQSPDSLAVSLGERATINCRASKSVSTSGYSYMHWYQQKPGQPPKLLIYLASNLEHGVPDRFSGSGSGTDFTLTISSLQAEDVAVYYCQHSRELPYTFGQGTKLEIK
B15: MYT13283 (antibody, V domains shown)
VH: QVQLQESGPGLVKPSETLSLTCTVSGGSISSYGVHWIRQPPGKGLEWIGVIWTSGVTDYNSALMGRVTISVDTSKNQFSLKLSSVTAADTAVYYCARDGDYHRYTMDYWGQGTLVTVSS
VL: DIVMTQSPDSLAVSLGERATINCRASKSVSTSGYSYMHWYQQKPGQPPKLLIYLASNLEHGVPDRFSGSGSGTDFTLTISSLQAEDVAVYYCQHSRELPYTFGQGTKLEIK
B16: MYT11706 (antibody, V domains shown)
VH: QVQLQESGPGLVKPSETLSLTCTVSGHSISSYGVHWIRQPPGKGLEWIGVIWTSGVTDYNSALMGRVTISVDTSKNQFSLKLSSVTAADTAVYYCARDGDYDRYTMDYWGQGTLVTVSS
VL: DIVMTQSPDSLAVSLGERATINCRASKSVSTSGYSYMHWYQQKPGQPPKLLIYLASNLESGVPDRFSGSGSGTDFTLTISSLQAEDVAVYYCQHSRELPYTFGQGTKLEIK
notes: hu7E6SVG variant, His at HCV position 27 (H1 02); screened as IgG in Expi293 supernatant

Tests used:
[1] = biological target: T1, TROP2 on TROP2-positive NCI-H1975 cells; test: cell-based or functional assay
[2] = biological target: T2, Human TROP2 Protein, His Tag (Acro …); test: BLI (Octet) [1/2]
Method: After allowing for four days of protein expression, cell culture supernatants were collected, quantified by SDS-PAGE analysis (DNS), and the pH dependence of the variant was evaluated using biolayer interferometry (BLI) on an Octet RED 96e instrument. Briefly, cell culture supernatants were diluted based on qualitative expression level of the variant determined by visual examination of SDS-PAGE gels, 5 μL of cell culture supernatant was diluted into 195 μL of 1×PBST, pH 7.4 for high expressors, 25 μL of cell culture supernatant was diluted into 175 μL of 1×PBST, pH 7.4 for medium expressors and 100 μL of cell culture supernatant was diluted into 100 μL of 1×PBST, pH 7.4 for low expressors for loading onto the sensor tips. The resulting diluted supernatants were then captured on an anti-human Fc sensor (Forte Bio). A baseline was established using 1×PBST (50 mM Potassium Phosphate Buffer+150 mM NaCl+0.05% Tween 20) pH 7.4, and the sensor was associated with 50 nM of TROP2 (Human TROP2 Protein, His Tag, Acro Biosystems) in 1×PBST pH 7.4 for 120 sec to generate an association curve. In the dissociation phase, the antibody-antigen complex on the sensor was exposed to 1×PBST pH 7.4 or pH 5.4, for 300 sec. Association and dissociation phase curves were examined for the starting ABPC antibody (with no substitutions) and each corresponding antibody variant at pH 5.4 and pH 7.4 to inform on two criteria: a) enhanced dissociation (i.e., higher koff values) at pH 5.4 due to histidine or alanine substitution compared to the starting ABPC, (with no substitutions), and b) reduced dissociation at pH 7.4 (i.e., lower koff values) compared to pH 5.4 in the antibody variant itself and with the starting ABPC (with no substitutions). […] It was also noted that while some mutations obliterated TROP2 binding, others were tolerated with little or n change in TROP2 binding kinetics.

| Binder | FOW H1975 (10 nM) [1] [fold over parent antibody] | binding result [2] |
| --- | --- | --- |
| B1 | 1.1 | – |
| B2 | 1.06 | – |
| B3 | 1.07 | – |
| B4 | 1.08 | – |
| B5 | – | binds |
| B6 | 1.37 | – |
| B7 | 1.35 | – |
| B8 | 1.59 | – |
| B9 | 1.15 | – |
| B10 | 1.7 | – |
| B11 | 1.37 | – |
| B12 | 1.09 | – |
| B13 | 1.39 | – |
| B14 | 1.61 | – |
| B15 | 1.51 | – |
| B16 | – | binds |
